In PMC8902620, “Oligomerization of DNA replication regulatory protein RADX is essential to maintain replication fork stability” (The Journal of Biological Chemistry, 2022):

Biological target: T1, full-length RADX, wild type, tagged with mCherry-FLAG or with GFP-HA (human, UniProt Q6NSI4 1-855)
T1 construct: RADX (cxorf57), human, full length; Two differently tagged copies of the same protein, written as one molecule; The GFP-HA copy is the one captured on GFP beads in the tests with purified proteins; The mCherry-FLAG copy is the one fished out there, and is the bait of the FLAG co-IP from lysate; also called mCherry-FLAG-RADX; m-Cherry-FLAG-RADX; source: HEK293T, transfected, in lysate; HEK293T, …
Experiment: co-IP; purified mCherry-FLAG proteins mixed with purified GFP-HA-RADX and captured on GFP-trap magnetic agarose beads, 1 h at 4 °C; 50 mM Tris pH 7.5, 250 mM NaCl, 10% glycerol, 0.05% NP-40; immunoblot
Conditions: both partners purified

Binder | binding result
mCherry-FLAG-RADX E842K (natural protein, human, UniProt Q6NSI4 1-855, looked up, RADX, human, full length with one point mutation; also called E842K RADX; pTM156; source: HEK293T, purified (anti-FLAG M2 beads, 3x FLAG peptide, Superdex 200)) MSGESGQPEAGPSHAGLDWPNPERNRAGVPGGVIRRAGSQGPRSWIQKVLEQIMDSPRQCVTPSEVVPVTVLAVQRYLLEDEPRDTVPKPPLYCYDVTISDGVYQEKCYLDPSLNSLVYQNILKVGIQMRISRVSCLYNEKRIGQGILCIDNVHCGETSDSISLETPFRNRAHQEKPERPLRGGKSHYLALWNNEDPYGDIWLTDKQPEEHNFSDTKIISLSHLEMTWTNRRNFPALLVRILHKSKLRYYGKPDKKMIEPYQTFLEVADSSGTVSVIMWNALCPEWYKSLRVGLVLLLQDYSVKKSYPFRIQPVPVDPQIKLISTMEICLNLRDPPTNIIIIPEKQVKPEWRLPKLNHRFTTRSELDDMPENCICDVIGLLVFVGRVQRSKKKENREDFWSYRWIHIADGTSEQPFIVELFSTSQPEIFENIYPMAYFVCTQLKVVRNDNQVPKLLYLTTTNESGVFITGHRGQPYTYDAKVKNFIQWIRTKSDSGEQKNMVIGGYYPYPPVPETFSKYSSSIKVESLLTAISEVRKEIEDLQYREQKRIAIQGIITAIKYIPHSSATESASASETLRNANRPSTSQAARVEIQERNGKRHQDDEPVNSQYFQTTSTNLSLSNKIRILQGPHANPVAVPQPGASVQTKGIKPGMPSIFNRRANINANLQGKARKTISDRWESQLWREKKFGLIDHLHYSRVYPESIPRKFMFEHRKFLSDQYNSQPAKYVPPEGRPPKLDDFKSARSLGHFEVTILGLNHEIAIDVAFLPMYCPEDIRTSQIDTLLTSMNYSCAYPQDTTGNDRLPGPRAVAGDIIKAATELDRVHIVGILDICNLGNNKVKVYLHKIYSPENTS | binds
mCherry-FLAG-RADX NHEI to AAAA (residues 759–762) (natural protein, human, UniProt Q6NSI4 1-855, looked up, also called pTM109; source: HEK293T, purified (anti-FLAG M2 beads, 3x FLAG peptide, Superdex 200)) MSGESGQPEAGPSHAGLDWPNPERNRAGVPGGVIRRAGSQGPRSWIQKVLEQIMDSPRQCVTPSEVVPVTVLAVQRYLLEDEPRDTVPKPPLYCYDVTISDGVYQEKCYLDPSLNSLVYQNILKVGIQMRISRVSCLYNEKRIGQGILCIDNVHCGETSDSISLETPFRNRAHQEKPERPLRGGKSHYLALWNNEDPYGDIWLTDKQPEEHNFSDTKIISLSHLEMTWTNRRNFPALLVRILHKSKLRYYGKPDKKMIEPYQTFLEVADSSGTVSVIMWNALCPEWYKSLRVGLVLLLQDYSVKKSYPFRIQPVPVDPQIKLISTMEICLNLRDPPTNIIIIPEKQVKPEWRLPKLNHRFTTRSELDDMPENCICDVIGLLVFVGRVQRSKKKENREDFWSYRWIHIADGTSEQPFIVELFSTSQPEIFENIYPMAYFVCTQLKVVRNDNQVPKLLYLTTTNESGVFITGHRGQPYTYDAKVKNFIQWIRTKSDSGEQKNMVIGGYYPYPPVPETFSKYSSSIKVESLLTAISEVRKEIEDLQYREQKRIAIQGIITAIKYIPHSSATESASASETLRNANRPSTSQAARVEIQERNGKRHQDDEPVNSQYFQTTSTNLSLSNKIRILQGPHANPVAVPQPGASVQTKGIKPGMPSIFNRRANINANLQGKARKTISDRWESQLWREKKFGLIDHLHYSRVYPESIPRKFMFEHRKFLSDQYNSQPAKYVPPEGRPPKLDDFKSARSLGHFEVTILGLAAAAAIDVAFLPMYCPEDIRTSQIDTLLTSMNYSCAYPQDTTGNDRLPGPRAVAGDIIKAATELDRVHIVGILDICNLGNNKVEVYLHKIYSPENTS | binds
mCherry-FLAG-RADX K840D (natural protein, human, UniProt Q6NSI4 1-855, looked up, RADX, human, full length with one point mutation; also called pTM155; source: HEK293T, purified (anti-FLAG M2 beads, 3x FLAG peptide, Superdex 200)) MSGESGQPEAGPSHAGLDWPNPERNRAGVPGGVIRRAGSQGPRSWIQKVLEQIMDSPRQCVTPSEVVPVTVLAVQRYLLEDEPRDTVPKPPLYCYDVTISDGVYQEKCYLDPSLNSLVYQNILKVGIQMRISRVSCLYNEKRIGQGILCIDNVHCGETSDSISLETPFRNRAHQEKPERPLRGGKSHYLALWNNEDPYGDIWLTDKQPEEHNFSDTKIISLSHLEMTWTNRRNFPALLVRILHKSKLRYYGKPDKKMIEPYQTFLEVADSSGTVSVIMWNALCPEWYKSLRVGLVLLLQDYSVKKSYPFRIQPVPVDPQIKLISTMEICLNLRDPPTNIIIIPEKQVKPEWRLPKLNHRFTTRSELDDMPENCICDVIGLLVFVGRVQRSKKKENREDFWSYRWIHIADGTSEQPFIVELFSTSQPEIFENIYPMAYFVCTQLKVVRNDNQVPKLLYLTTTNESGVFITGHRGQPYTYDAKVKNFIQWIRTKSDSGEQKNMVIGGYYPYPPVPETFSKYSSSIKVESLLTAISEVRKEIEDLQYREQKRIAIQGIITAIKYIPHSSATESASASETLRNANRPSTSQAARVEIQERNGKRHQDDEPVNSQYFQTTSTNLSLSNKIRILQGPHANPVAVPQPGASVQTKGIKPGMPSIFNRRANINANLQGKARKTISDRWESQLWREKKFGLIDHLHYSRVYPESIPRKFMFEHRKFLSDQYNSQPAKYVPPEGRPPKLDDFKSARSLGHFEVTILGLNHEIAIDVAFLPMYCPEDIRTSQIDTLLTSMNYSCAYPQDTTGNDRLPGPRAVAGDIIKAATELDRVHIVGILDICNLGNNDVEVYLHKIYSPENTS | binds

Results, then the binder that gave them:

binding result | Binder
binds | mCherry-FLAG-RADX K847D (natural protein, human, UniProt Q6NSI4 1-855, looked up, RADX, human, full length with one point mutation; also called K847D RADX; pTM157; source: HEK293T, purified (anti-FLAG M2 beads, 3x FLAG peptide, Superdex 200)) MSGESGQPEAGPSHAGLDWPNPERNRAGVPGGVIRRAGSQGPRSWIQKVLEQIMDSPRQCVTPSEVVPVTVLAVQRYLLEDEPRDTVPKPPLYCYDVTISDGVYQEKCYLDPSLNSLVYQNILKVGIQMRISRVSCLYNEKRIGQGILCIDNVHCGETSDSISLETPFRNRAHQEKPERPLRGGKSHYLALWNNEDPYGDIWLTDKQPEEHNFSDTKIISLSHLEMTWTNRRNFPALLVRILHKSKLRYYGKPDKKMIEPYQTFLEVADSSGTVSVIMWNALCPEWYKSLRVGLVLLLQDYSVKKSYPFRIQPVPVDPQIKLISTMEICLNLRDPPTNIIIIPEKQVKPEWRLPKLNHRFTTRSELDDMPENCICDVIGLLVFVGRVQRSKKKENREDFWSYRWIHIADGTSEQPFIVELFSTSQPEIFENIYPMAYFVCTQLKVVRNDNQVPKLLYLTTTNESGVFITGHRGQPYTYDAKVKNFIQWIRTKSDSGEQKNMVIGGYYPYPPVPETFSKYSSSIKVESLLTAISEVRKEIEDLQYREQKRIAIQGIITAIKYIPHSSATESASASETLRNANRPSTSQAARVEIQERNGKRHQDDEPVNSQYFQTTSTNLSLSNKIRILQGPHANPVAVPQPGASVQTKGIKPGMPSIFNRRANINANLQGKARKTISDRWESQLWREKKFGLIDHLHYSRVYPESIPRKFMFEHRKFLSDQYNSQPAKYVPPEGRPPKLDDFKSARSLGHFEVTILGLNHEIAIDVAFLPMYCPEDIRTSQIDTLLTSMNYSCAYPQDTTGNDRLPGPRAVAGDIIKAATELDRVHIVGILDICNLGNNKVEVYLHDIYSPENTS
binds | mCherry-FLAG-RADX KIY to DIA (residues 847–849) (natural protein, human, UniProt Q6NSI4 1-855, looked up, also called pTM114; source: HEK293T, purified (anti-FLAG M2 beads, 3x FLAG peptide, Superdex 200)) MSGESGQPEAGPSHAGLDWPNPERNRAGVPGGVIRRAGSQGPRSWIQKVLEQIMDSPRQCVTPSEVVPVTVLAVQRYLLEDEPRDTVPKPPLYCYDVTISDGVYQEKCYLDPSLNSLVYQNILKVGIQMRISRVSCLYNEKRIGQGILCIDNVHCGETSDSISLETPFRNRAHQEKPERPLRGGKSHYLALWNNEDPYGDIWLTDKQPEEHNFSDTKIISLSHLEMTWTNRRNFPALLVRILHKSKLRYYGKPDKKMIEPYQTFLEVADSSGTVSVIMWNALCPEWYKSLRVGLVLLLQDYSVKKSYPFRIQPVPVDPQIKLISTMEICLNLRDPPTNIIIIPEKQVKPEWRLPKLNHRFTTRSELDDMPENCICDVIGLLVFVGRVQRSKKKENREDFWSYRWIHIADGTSEQPFIVELFSTSQPEIFENIYPMAYFVCTQLKVVRNDNQVPKLLYLTTTNESGVFITGHRGQPYTYDAKVKNFIQWIRTKSDSGEQKNMVIGGYYPYPPVPETFSKYSSSIKVESLLTAISEVRKEIEDLQYREQKRIAIQGIITAIKYIPHSSATESASASETLRNANRPSTSQAARVEIQERNGKRHQDDEPVNSQYFQTTSTNLSLSNKIRILQGPHANPVAVPQPGASVQTKGIKPGMPSIFNRRANINANLQGKARKTISDRWESQLWREKKFGLIDHLHYSRVYPESIPRKFMFEHRKFLSDQYNSQPAKYVPPEGRPPKLDDFKSARSLGHFEVTILGLNHEIAIDVAFLPMYCPEDIRTSQIDTLLTSMNYSCAYPQDTTGNDRLPGPRAVAGDIIKAATELDRVHIVGILDICNLGNNKVEVYLHDIASPENTS
binds | mCherry-FLAG-RADX KVEV to DVKV (residues 840–843) (natural protein, human, UniProt Q6NSI4 1-855, looked up, The results print residues 840 to 844, the methods 840–843; also called pTM113; source: HEK293T, purified (anti-FLAG M2 beads, 3x FLAG peptide, Superdex 200)) MSGESGQPEAGPSHAGLDWPNPERNRAGVPGGVIRRAGSQGPRSWIQKVLEQIMDSPRQCVTPSEVVPVTVLAVQRYLLEDEPRDTVPKPPLYCYDVTISDGVYQEKCYLDPSLNSLVYQNILKVGIQMRISRVSCLYNEKRIGQGILCIDNVHCGETSDSISLETPFRNRAHQEKPERPLRGGKSHYLALWNNEDPYGDIWLTDKQPEEHNFSDTKIISLSHLEMTWTNRRNFPALLVRILHKSKLRYYGKPDKKMIEPYQTFLEVADSSGTVSVIMWNALCPEWYKSLRVGLVLLLQDYSVKKSYPFRIQPVPVDPQIKLISTMEICLNLRDPPTNIIIIPEKQVKPEWRLPKLNHRFTTRSELDDMPENCICDVIGLLVFVGRVQRSKKKENREDFWSYRWIHIADGTSEQPFIVELFSTSQPEIFENIYPMAYFVCTQLKVVRNDNQVPKLLYLTTTNESGVFITGHRGQPYTYDAKVKNFIQWIRTKSDSGEQKNMVIGGYYPYPPVPETFSKYSSSIKVESLLTAISEVRKEIEDLQYREQKRIAIQGIITAIKYIPHSSATESASASETLRNANRPSTSQAARVEIQERNGKRHQDDEPVNSQYFQTTSTNLSLSNKIRILQGPHANPVAVPQPGASVQTKGIKPGMPSIFNRRANINANLQGKARKTISDRWESQLWREKKFGLIDHLHYSRVYPESIPRKFMFEHRKFLSDQYNSQPAKYVPPEGRPPKLDDFKSARSLGHFEVTILGLNHEIAIDVAFLPMYCPEDIRTSQIDTLLTSMNYSCAYPQDTTGNDRLPGPRAVAGDIIKAATELDRVHIVGILDICNLGNNDVKVYLHKIYSPENTS
